Results reported in the supplement of paper PMC10567573.
± gives the standard deviation.

Test: protein stability index of a GFP-peptide fusion (GPS, HEK-293T) (PSI 1-6); higher = more stable
Settings: c terminus: a fixed tail appended
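Note: 24-mer peptide tiles fused after GFP, lentivirally expressed, FACS-sorted into six equal bins by GFP/DsRed ratio, decoded by Illumina sequencing, PSI is the read-weighted mean bin number.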

LRRQKSLRLEWETQQELRKIREKE [IQUB]
protein stability index (treatment: DMSO): 3.94 ± 0.28
protein stability index (treatment: MLN4924 1 uM, 8 h): 4.02 ± 0.091

RYVEFNLLYDRGTKFGLFTPGSRI [CPOX]
protein stability index (treatment: DMSO): 2.52 ± 0.75
protein stability index (treatment: MLN4924 1 uM, 8 h): 2.26 ± 0.27

MDLMVEVSPRRIFANGHTYHINSI [PPP2R2C]
protein stability index (treatment: DMSO): 2.91 ± 0.41
protein stability index (treatment: MLN4924 1 uM, 8 h): 2.8 ± 0.6

YKRRIDAENSPYLNPQLVQPAKKP [ESRRG]
protein stability index (treatment: DMSO): 4.01 ± 0.27
protein stability index (treatment: MLN4924 1 uM, 8 h): 3.85 ± 0.33

PCVIESLRTLDKKTFYKTADISQM [TAF7L]
protein stability index (treatment: DMSO): 2.33 ± 0.34
protein stability index (treatment: MLN4924 1 uM, 8 h): 2.41 ± 0.23

LNQVADLLEQSLEEFAQAESKDQG [ALDH8A1]
protein stability index (treatment: DMSO): 5.18 ± 0.14
protein stability index (treatment: MLN4924 1 uM, 8 h): 5.21 ± 0.53

ETPGSAVDYPLHDLVLHTNYTATV [TNXB]
protein stability index (treatment: DMSO): 2.83 ± 0.18
protein stability index (treatment: MLN4924 1 uM, 8 h): 2.87 ± 0.55

LHGKAIKVEQAKKPSFQSGGRRRP [RBMY1A1]
protein stability index (treatment: DMSO): 3.89 ± 0.2
protein stability index (treatment: MLN4924 1 uM, 8 h): 4.21 ± 0.16

VTLGGVLRQQLVVSKELRMYDEKA [KLHL13]
protein stability index (treatment: DMSO): 2.95 ± 0.25
protein stability index (treatment: MLN4924 1 uM, 8 h): 3.02 ± 0.41

SVDIVSSHWDLNHTHPSACQGQRL [PLD5]
protein stability index (treatment: DMSO): 3.64 ± 0.16
protein stability index (treatment: MLN4924 1 uM, 8 h): 3.82 ± 0.086

SITFTTGLEAPRDLEAKEVTPRTA [TNXB]
protein stability index (treatment: DMSO): 5.22 ± 0.37
protein stability index (treatment: MLN4924 1 uM, 8 h): 5.16 ± 0.3

TNFVSRYDPRFNSWIQLPPMQERR [KLHL14]
protein stability index (treatment: DMSO): 3.22 ± 0.084
protein stability index (treatment: MLN4924 1 uM, 8 h): 3.34 ± 0.31

GLDIGAQGEPLGYRQDDPSYRSFH [CTNNB1]
protein stability index (treatment: DMSO): 4.14 ± 0.12
protein stability index (treatment: MLN4924 1 uM, 8 h): 4.22 ± 0.19

PDAIRSRSNTLRERSQVRGSAPPR [PCDHGC5]
protein stability index (treatment: DMSO): 5 ± 0.33
protein stability index (treatment: MLN4924 1 uM, 8 h): 4.84 ± 0.23

TPMRVALAGTFHYYSCERAKKAMG [NSDHL]
protein stability index (treatment: DMSO): 2.48 ± 0.5
protein stability index (treatment: MLN4924 1 uM, 8 h): 2.38 ± 0.16

WHLKQSPASPERDYSPYYKTIEEL [KRT13]
protein stability index (treatment: DMSO): 3.26 ± 0.094
protein stability index (treatment: MLN4924 1 uM, 8 h): 3.29 ± 0.26

IFAWNKWIDIKQFVWYTPPTFMIA [STEAP1]
protein stability index (treatment: DMSO): 2.97 ± 1.2
protein stability index (treatment: MLN4924 1 uM, 8 h): 2.95 ± 0.64

RSVKVICLGSLASKLSRKYVKAKK [FAN1]
protein stability index (treatment: DMSO): 2.37 ± 0.25
protein stability index (treatment: MLN4924 1 uM, 8 h): 2.37 ± 0.28

RQVLCEKCKSTLSPPEASPGPPAA [PWWP2B]
protein stability index (treatment: DMSO): 4.88 ± 0.14
protein stability index (treatment: MLN4924 1 uM, 8 h): 4.83 ± 0.37

IDNARLAADDFRLKYENELALRQG [KRT15]
protein stability index (treatment: DMSO): 4.24 ± 0.28
protein stability index (treatment: MLN4924 1 uM, 8 h): 4.28 ± 0.45

EEKAFESVIEPVQESSFRSRKIAV [MIA2]
protein stability index (treatment: DMSO): 4.31 ± 0.16
protein stability index (treatment: MLN4924 1 uM, 8 h): 4.11 ± 0.22

IRNSRPLVKKVEEDEAGGRFVAFS [UFD1]
protein stability index (treatment: DMSO): 4.11 ± 0.15
protein stability index (treatment: MLN4924 1 uM, 8 h): 4.05 ± 0.21

ALPEAPAPLLPHITATSLLGTRES [BCL2L13]
protein stability index (treatment: DMSO): 4.67 ± 0.23
protein stability index (treatment: MLN4924 1 uM, 8 h): 4.56 ± 0.16

ARIYEETLNILLYEAQDGRGPDNA [KCTD10]
protein stability index (treatment: DMSO): 3.23 ± 0.28
protein stability index (treatment: MLN4924 1 uM, 8 h): 3.04 ± 0.6

GACYGDDACFVARHRSADVLGVAD [PPTC7]
protein stability index (treatment: DMSO): 4.18 ± 0.34
protein stability index (treatment: MLN4924 1 uM, 8 h): 4.817 ± 0.045

AGNSSRNSSQSSSDGSCKTAGEMV [BTBD10]
protein stability index (treatment: DMSO): 5.16 ± 0.35
protein stability index (treatment: MLN4924 1 uM, 8 h): 5.14 ± 0.22

CEFSSERGPRMCRFIRERDRAVND [CDC25B]
protein stability index (treatment: DMSO): 3.51 ± 0.22
protein stability index (treatment: MLN4924 1 uM, 8 h): 3.52 ± 0.17

KHSNSPPLVTPPQSPVSPQPPAIT [SMTNL2]
protein stability index (treatment: DMSO): 4.82 ± 0.15
protein stability index (treatment: MLN4924 1 uM, 8 h): 4.92 ± 0.15

NDNKVLRYLAVLESPIPEDKDRRF [EFHC1]
protein stability index (treatment: DMSO): 3.51 ± 0.21
protein stability index (treatment: MLN4924 1 uM, 8 h): 3.6 ± 0.15

GSNGYILNKPALQAQPLRTTSTLA [EHMT1]
protein stability index (treatment: DMSO): 3.59 ± 0.36
protein stability index (treatment: MLN4924 1 uM, 8 h): 3.44 ± 0.17

RAHPPQRPASSGGAHTLVNHGYAE [KCNA3]
protein stability index (treatment: DMSO): 4.12 ± 0.13
protein stability index (treatment: MLN4924 1 uM, 8 h): 3.94 ± 0.3

FPDLNTYIYYNEKYGGPNHHLPLP [CPN1]
protein stability index (treatment: DMSO): 2.15 ± 0.17
protein stability index (treatment: MLN4924 1 uM, 8 h): 2.42 ± 0.096

PAMGLQKKLRLNGGRNPYEGRVEV [LOXL2]
protein stability index (treatment: MLN4924 1 uM, 8 h): 4.08 ± 0.88

TPMATKRSGAGVALLNDHIYVVGG [KLHL12]
protein stability index (treatment: DMSO): 2.91 ± 0.26
protein stability index (treatment: MLN4924 1 uM, 8 h): 2.71 ± 0.31

KQPPLSTVPADGYILELDDGNGGQ [TRIM9]
protein stability index (treatment: DMSO): 5.07 ± 0.12
protein stability index (treatment: MLN4924 1 uM, 8 h): 5.07 ± 0.2

ERCSDSDEEKKARRGRSPKGEFKD [CLINT1]
protein stability index (treatment: DMSO): 5.43 ± 0.27
protein stability index (treatment: MLN4924 1 uM, 8 h): 5.3 ± 0.51
